This is an account of results in IntAct's records for PubMed 23559067.

First the molecules themselves.
B1: Retinal rod rhodopsin-sensitive cGMP 3',5'-cyclic phosphodiesterase subunit delta (Homo sapiens), O43924 (parent)
chain: MSAKDERAREILRGFKLNWMNLRDAETGKILWQGTEDLSVPGVEHEARVPKKILKCKAVSRELNFSSTEQMEKFRLEQKVYFKGQCLEEWFFEFGFVIPNSTNTWQSLIEAAPESQMMPASVLTGNVIIETKFFDDDLLVSTSRVRLFYV
partner: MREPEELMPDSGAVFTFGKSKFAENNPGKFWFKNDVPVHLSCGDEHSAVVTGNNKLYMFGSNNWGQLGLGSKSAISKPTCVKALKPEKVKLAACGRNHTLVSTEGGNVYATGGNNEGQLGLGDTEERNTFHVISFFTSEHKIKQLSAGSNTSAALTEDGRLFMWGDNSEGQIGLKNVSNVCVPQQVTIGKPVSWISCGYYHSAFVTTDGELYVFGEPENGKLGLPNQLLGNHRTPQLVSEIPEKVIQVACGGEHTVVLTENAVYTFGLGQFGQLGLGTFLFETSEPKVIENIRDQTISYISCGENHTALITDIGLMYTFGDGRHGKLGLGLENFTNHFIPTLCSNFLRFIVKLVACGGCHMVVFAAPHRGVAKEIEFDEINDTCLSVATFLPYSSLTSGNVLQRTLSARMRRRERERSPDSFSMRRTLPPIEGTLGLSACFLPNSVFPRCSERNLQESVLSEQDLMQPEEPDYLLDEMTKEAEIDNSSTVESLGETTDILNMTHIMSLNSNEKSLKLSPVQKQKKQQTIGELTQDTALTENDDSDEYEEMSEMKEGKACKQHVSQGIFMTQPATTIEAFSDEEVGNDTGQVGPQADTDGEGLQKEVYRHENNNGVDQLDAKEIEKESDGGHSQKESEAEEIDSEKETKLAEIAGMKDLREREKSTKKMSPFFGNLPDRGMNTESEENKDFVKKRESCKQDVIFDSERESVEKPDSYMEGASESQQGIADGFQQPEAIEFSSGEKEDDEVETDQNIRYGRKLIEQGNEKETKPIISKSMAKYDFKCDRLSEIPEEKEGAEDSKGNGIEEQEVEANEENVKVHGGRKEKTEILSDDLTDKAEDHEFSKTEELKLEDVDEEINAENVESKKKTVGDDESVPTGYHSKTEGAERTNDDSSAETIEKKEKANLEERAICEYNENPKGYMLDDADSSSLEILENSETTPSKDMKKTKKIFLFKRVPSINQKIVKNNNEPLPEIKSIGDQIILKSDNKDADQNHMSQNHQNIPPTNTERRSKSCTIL
B2: X-linked retinitis pigmentosa GTPase regulator (Homo sapiens), Q92834 (parent)
chain: B1 partner

The variants in one experiment derive from B1. Conditions: with rpgr_human RPGR, Q92834.
In the case of R48E, the “effect of a mutation on the interaction” value is given as “disrupting interaction”.

Another experiment covers variants of B2. To be noted: with pde6d_human PDE6D, O43924.
As to E216R, the “effect of a mutation on the interaction” value is “disrupting interaction”.
